In patent publication US20190062438A1 (CSL, published 2019):
Changes are numbered by the printed parent chain.

Experiments:
Test in all cases: SPR, kinetics, Fab over captured mutant
[1] = target: T1, shCD131 N422A (human, UniProt P32927 17-438)
T1 construct: C-terminal 6xHis
T1 sequence: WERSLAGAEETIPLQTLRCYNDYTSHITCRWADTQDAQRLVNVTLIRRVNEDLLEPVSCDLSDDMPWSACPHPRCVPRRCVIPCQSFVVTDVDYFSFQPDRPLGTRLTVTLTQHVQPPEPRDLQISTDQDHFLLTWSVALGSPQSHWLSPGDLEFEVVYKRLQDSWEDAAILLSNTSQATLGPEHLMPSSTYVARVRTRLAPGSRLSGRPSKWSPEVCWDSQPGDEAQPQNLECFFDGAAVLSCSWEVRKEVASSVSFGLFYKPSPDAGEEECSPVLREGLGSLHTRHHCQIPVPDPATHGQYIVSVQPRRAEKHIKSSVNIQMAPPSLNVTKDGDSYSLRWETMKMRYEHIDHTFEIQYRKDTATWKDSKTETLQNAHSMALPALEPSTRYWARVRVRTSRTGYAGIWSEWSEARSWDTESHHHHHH

[2] = target: T2, shCD131 V108A (human, UniProt P32927 17-438)
T2 construct: C-terminal 6xHis
T2 sequence: T1 sequence with V92A, A406N

[3] = target: T3, shCD131 R364A (human, UniProt P32927 17-438)
T3 construct: C-terminal 6xHis
T3 sequence: T1 sequence with R348A, A406N

[4] = target: T4, shCD131 D369A (human, UniProt P32927 17-438)
T4 construct: C-terminal 6xHis
T4 sequence: T1 sequence with D353A, A406N

B1: 9A2 Fab (Fab, V domains shown)
VH: EVQLLESGGGLVQPGGSLRLSCAASGFTFSHYHMLWVRQAPGKGLEWVSSIRSSGGFTYYADSVKGRFTISRDNSKNTLYLQMNSLRAEDTAVYYCARFYDSFFDIWGQGTMVTVSS
VL: DIQMTQSPSSVSASVGDRVTITCRASQGISSWLAWYQQKPGKAPKLLIYAASSLQSGVPSRFSGSGSGTDFTLTISSLQPEDFATYYCQQANSFPITFGQGTRLEIKR
notes: also called recombinant Fab of 9A2
- Kd [1]: 54 nM
- Kd [2]: 83 nM
- Kd [3]: 119 nM
- Kd [4]: 28 nM
